Source: publication PMC10636607 (2023)
Where two headings read alike, the source gives them in different places.

Key:
Assay in all cases: BLI
[1] = biological target: His-tagged HIV Env MPER peptide (HIV)
[2] = biological target: T1, biotinylated influenza hemagglutinin (HA) from H1N1 A/California/07/2009 (influenza A virus H1N1 …)
[3] = biological target: His6-tagged SARS-CoV-2 receptor-binding domain (SARS-CoV-2, UniProt P0DTC2 319-541)
[4] = biological target: HCV (isolate H77) E2 domain protein (hepatitis C virus (isolate H77))
[5] = biological target: T1, biotinylated influenza hemagglutinin …; remark: listed apart in the source
[6] = biological target: T2, biotinylated C-terminal αTSR domain of P. falciparum circumsporozoite protein (P. falciparum, UniProt Q7K740 310-375, biotinylated)
T2 chain: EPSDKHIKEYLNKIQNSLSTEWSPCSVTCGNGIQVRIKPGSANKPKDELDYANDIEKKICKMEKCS

[7] = biological target: T3, biotinylated SARS-CoV-2 fusion peptide (SARS-CoV-2, biotin on the N-terminus)
T3 peptide: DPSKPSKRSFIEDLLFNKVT

B1: 4E10 Fab (WT) (Fab, V domains shown)
VH: QVQLVQSGAEVKRPGSSVTVSCKASGGSFSTYALSWVRQAPGRGLEWMGGVIPLLTITNYAPRFQGRITITADRSTSTAYLELNSLRPEDTAVYYCAREGTTGWGWLGKPIGAFAHWGQGTLVTVSS
VL: EIVLTQSPGTQSLSPGERATLSCRASQSVGNNKLAWYQQRPGQAPRLLIYGASSRPSGVADRFSGSGSGTDFTLTISRLEPEDFAVYYCQQYGQSLSTFGQGTKVEVK
Kd [1]: 9.1 nM

B2: 3E1 Fab (WT) (Fab, V domains shown)
VH: QVQLQESGPGLVKPSETLSLTCSVSGASISSYYWIWIRQPAGKGLEWIGRFYTSGSPNYNPSLRSRVTMSVDTSKNQFSLKLTSVTAADTAVYYCAREEHITFGGVIVRYWGQGTLVTVSP
VL: DIQMTQSPATLSASVGDRVSITCRASQSISSWLAWYQQKPGKAPKLLIYKASSLESGVPSRFSGSGSGSEFTLTISSLQPDDFAIYYCQQYNSYPWTFGQGTKVEIK
Kd [2]: 6.9 nM

B3: GAR12 Fab (WT) (Fab, V domains shown)
VH: EVQLVQSGGGLVQPGGSLRLSCAASGFTFSSYAMSWVRQAPGKGLEWVLSISGSGGSTYYADSVKGRFTISIDNSKKTVYLQMNSLRAEDTAVYYCAKSGEQQLVQAEYFHHWGQGTLVTVSS
VL: DIQMTQSPSTLSASVGDRVTITCRASQSIGRWLAWYQQKPGKAPKLLIYDASSLESGVPSRFSGSGFGTEFTLTISSLQPDDFATYYCQQCDSLLTFGGGTKLEIK
Kd [3]: 3.5 nM

B4: HC84.26.5D Fab (WT) (Fab, V domains shown)
VH: VQPVQSGAEVKKPGSSVKVSCEASGGTHSNYVITWVRQAPGQGLEWMGGFIPDFRTAMYAQGFQGRVTITADESTSLAYMELTNLRSEDTAVYYCARGPLSRGYYDYWGPGTLVTVSS
VL: YVLTQPPSVSVAPGQTASITCSGDKLGDKYVSWYQQRPGQSPVLVLYQDSKRPSGIPERFSGSNSGNTATLTISGTQAMDEADYYCQAWDSSALVFGGGTKLTVL
Kd [4]: 0.9 nM

B5: 5J8 Fab (WT) (Fab, V domains shown)
VH: EVQLVESGPGLVKPSDILSLTCAVSGYSISSNYYWGWIRQPPGKGLEWIGSIYHSGSTYYKPSLESRLGISVDTSKNQFSLKLSFVSAADTAVYYCARHVRSGYPDTAYYFDKWGQGTLVTVSS
VL: SYVLTQPPSVSVAPGETARISCGGNNIGTKVLHWYQQTPGQAPVLVVYDDSDRPSGIPERFSGSNSGNTATLTISRVEVGDEADYYCQVWDISTDQAVFGGGTKLTVL
Kd [5]: 4 nM

B6: Fab234 (WT) (Fab, V domains shown)
VH: EVQLVESGGGLVKPGGSLRLSCAASGFNFSTHIMNWVRQAPGKGLEWVSSISSSGTYIYYADSMKGRFTISRDNPKNSLYLQMNSLRAEDTAVYYCARARGFIQFHYYMDVWGKGTTVAVSS
VL: SYVLTQPPSVSVAPGKTARITCGGNNIGSKSVHWHQQRPGQAPVLVVYDDKIRPSGIPERFSGSNSGNTATLIISRVEAGDEADYYCQVWHSSSDPVVFGGGTKLTVL
Kd [6]: 0.2 nM

B7: COV44-62 Fab (WT) (Fab, V domains shown)
VH: QMQLMQSGAEVKKPGASVTVSCKASGDTFSDYRIHWVRQAPGQGLEWMGRMNPKSGDTNFAQKFQGRVTMTRDMSINTAYMTLSGLTFDDTALYYCASLLIVGGFDPLDDFEVWGQGTMVTISS
VL: QSALTQPPSASGSPGQSVTISCSGTSSDVGGYNFVSWYQHHPGKAPKILIYEVTKRPSGVPDRFSGSKSGNTASLTVSGLQAEDEADYYCSSYGGTNNLLFGGGTKLTVL
Kd [7]: 26 nM

B8: GAR12 Fab VL D50K (Fab, V domains shown)
VH: EVQLVQSGGGLVQPGGSLRLSCAASGFTFSSYAMSWVRQAPGKGLEWVLSISGSGGSTYYADSVKGRFTISIDNSKKTVYLQMNSLRAEDTAVYYCAKSGEQQLVQAEYFHHWGQGTLVTVSS
VL: DIQMTQSPSTLSASVGDRVTITCRASQSIGRWLAWYQQKPGKAPKLLIYKASSLESGVPSRFSGSGFGTEFTLTISSLQPDDFATYYCQQCDSLLTFGGGTKLEIK
Kd [3]: 153 nM
